Results reported in US20130315920A1, “Cross Protective Epitopes of Aspergillus Fumigatus and Candida Albicans” (Cell Medica Limited, priority 2010, published 2013).

Experiments:
[1] = molecular target: PE-conjugated Crf1 p41-specific HLA-DRB1*0401 MHC class II tetramer (Aspergillus fumigatus; human); assay: flow cytometry, tetramer staining of T-cell lines expanded for 14 days
HLA-DRB1*03, 04 and 13 = assay: Minimal epitope analysis with 11-mer peptides; format: cell-based, human; details: data not shown
Source text: To evaluate the utility of the Crf1 p41 epitope for potential clinical application, we defined the HLA restriction of Crf1 p41-specific CD4^+ T clones from different donors by stimulation with peptide-pulsed partially matched LCLs. […] As presentation of the Crf1 p41 peptide could also be mediated by other MHC class II alleles, we verified the HLA restriction by stimulation of PBMC from additional donors.
A peptide library covering the complete Crf1 sequence consisting of 94 15-mer peptides overlapping by […] (aa) was divided into sub-pools of 10 peptides and 94 single peptides (p1-p94) (PANATecs). 3 11-mer peptides of p40/41 overlapping by 2aa ([…], […], HTYTIDWTKDA) were obtained from JPT Peptide Technologies.

[2] = molecular target: recombinant A. fumigatus Crf1 protein with FLAG-Tag (Aspergillus fumigatus)
[3] = molecular target: recombinant A. fumigatus secreted protein peptidase (Aspergillus fumigatus)
C. albicans = assay: Vaccination of mice before intragastric C. albicans infection; format: in vivo, BALB/c mice
Method: A. fumigatus Crf1 protein mediates cross-protection to C. albicans. Mice were injected intranasally with resting A. fumigatus conidia 14 days before infection, or with purified Crf1 protein and murine CpG oligodeoxynucleotide 1862 14, 7 and 3 days before intragastric infection with C. albicans. Note (a) the reduced inflammatory cell recruitment and acanthosis in mice vaccinated with A. fumigatus conidia or Crf1 protein as opposed to control mice shown in FIG. 5a and c and (b) the increase in protective TH1 and regulatory T-cell transcription factors and cytokine levels. Shown are fungal growth (CFU/organ, mean±SE), stomach histology and transcription factor and cytokine mRNA expression in CD4^+ T-cells from mesenteric lymph nodes a week after infection with C. albicans. Shown are results pooled from 2 experiments (6 animals/group). Bars indicate SE. P, vaccinated animals versus control. (c) Proliferation of purified CD4^+ spleen cells from untreated mice or animals vaccinated with A. fumigatus or C. albicans in response to control DC, anti-CD3E antibody, heat-inactivated A. fumigatus or C. albicans or A. fumigatus Crf1 p41 and p22 peptide. The results are expressed as mean cpm±SEM of triplicate cultures. P, stimulated versus control DC.
Mice were infected with 2×10^7 resting A. fumigatus conidia intranasally^7,45 and with 10^8C. albicans intragastrically^13. For co-infection, mice were infected a week before the subsequent infection. In the vaccination model, mice were injected intranasally with 2×10^7 Aspergillus resting conidia/20 μl saline once, 14d before infection, or with 5 μg purified Crf1p antigen^7 and 10 nM murine CpG oligodeoxynucleotide 1862, administered 14 d, 7 d and 3 d before intragastric C. albicans infection^7. Mice were monitored for survival (MST, days) and fungal growth (CFU/organ expressed as mean±SE). Mice dying of fungal challenge routinely underwent necropsy for histopathological confirmation of infection^7. […]

[4] = tested on: T-cell lines from PBMC of healthy donors; assay: IFN-γ ELISA of T-cell lines stimulated with recombinant A. fumigatus proteins; format: cell-based, human; details: 5 μg/ml protein
Source text: As the identification of potential protective fungal antigens is rather intricate due to the extensiveness of fungal genomes, we analyzed 6 different A. fumigatus recombinant proteins based on their previously reported immunogeneic reactivity in mice and humans^7,10. […] By contrast, GPI-anchored extracellular cell wall glucanase Crf1 and secreted protein peptidase induced high IFN-γ in 6 of 7 and 5 of 10 tested donors, respectively. The response was mediated by CD4^+ TH1 cells, as MHC class II blocking antibody nearly abrogated IFN-γ release (data not shown). Due to the broad response and the sequence similarity to the C. albicans orthologue Crh1, we focused in subsequent experiments on the protein Crf1. By epitope mapping of 7 healthy individuals with different MHC class II alleles, we identified 10 potential candidate epitopes (Table 1). Based on the results obtained by epitope mapping, the probability of antigen presentation by certain MHC class II alleles assessed by epitope prediction^11, previously reported immunogeneic reactivity^12 and sequence similarity to the C. albicans homologue Crh1, we then generated CD4^+ TH1 T-cell clones specific for the peptides p1, p22, p27, p41, p48, p59, p69 and p84 (FIG. 1a and Table 1).
A. fumigatus superoxide dismutase^34, catalase^35, peptidase^36 and 1,3-beta-glucanosyl-transferase Gel1^30 were produced in the yeast Pichia pastoris as described^37. Extracellular cell wall glucanase Crf1^37 (cDNA provided by Utz Reichard) and the major allergen and cytotoxin AspF1^10 were expressed with FLAG-Tags in the human cell line phoenix GALV^38.
For analysis of recombinant proteins and epitope mapping, T-cell lines were generated by incubation of 1×10^7 PBMC per well in 6-well cell culture plates with 5 μg/ml protein or peptide for 7d in the presence of 5 U/ml IL-2 (Proleukin, Chiron). Antigen specificity was analyzed by IFN-γ ELISA^42 after restimulation with autologous monocytes incubated overnight with 5 μg/ml protein in a responder to stimulator (R:S) ratio of 5:1. Epitope mapping was performed by IFN-γ ELISPOT^39 after stimulation with peptide-pulsed autologous DC at a R:S ratio of 10:1.

Crf1 p41-specific CD4^+ T-cell lines expanded for 14 days (cells without a defined receptor)
frequency of antigen-specific cells as determined by tetramer (median) [1]: 50.6%

HTYTIDWTKDA (peptide of A. fumigatus Crf1)
Minimal epitope (HLA-DRB1*03, 04 and 13): is the minimal epitope of Crf1 p41 for all 3 HLA alleles

T-cell lines from PBMC of healthy donors, raised with the respective recombinant A. fumigatus protein (cells without a defined receptor)
IFN-γ (ELISA) (of 7 tested donors) [2]: 6 | IFN-γ (ELISA) (of 10 tested donors) [3]: 5

B1: Crf1: recombinant A. fumigatus GPI-anchored extracellular cell wall glucanase Crf1; given with CpG oligodeoxynucleotide 1862 in mice (protein)
chain: QTWSKCNPLEKTCPPNKGLAASTYTADFTSASALDQWEVTAGKVPVGPQGAEFTVAKQGDAPTIDTDFYFFFGKAEVVMKAAPGTGVVSSIVLESDDLDEVDWEVLGGDTTQVQTNYFGKGDTTTYDRGTYVPVATPQETFHTYTIDWTKDAVTWSIDGAVVRTLTYNDAKGGTRFPQTPMRLRLGSWAGGDPSNPKGTIEWAGGLTDYSAGPYTMYVKSVRIENANPAESYTYSDNSGSWQSIKFDGSVDISSSSSVTSSTTSTASSASSTSSKTPSTSTLATSTKATPTPSGTSSGSNSSSSAEPTTTGGTGSSNTGSGSGSGSGSGSSSSTGSSTSAGASATPELSQG
Tbet/Foxp3 CD4+ T-cells and cytokines in mesenteric lymph nodes (C. albicans; a week after infection with C. albicans): activation of Tbet^+/Foxp3^+ CD4^+T-cells and their respective cytokines, IFN-γ and IL-10, in mesenteric lymph nodes | Protection against lethal infection (C. albicans; vaccinated mice): protected against lethal infection with C. albicans | Fungal burden and inflammatory pathology in the stomach (C. albicans; vaccination intranasally before intragastric C. albicans infection, Crf1 protein with CpG as adjuvant): both vaccination strategies reduced the fungal burden and inflammatory pathology in the stomach of mice with candidiasis | donors with high IFN-γ of tested donors [4]: 6 of 7
